In assay [1] the target is T1, human syndecan-1 (human, UniProt P18827 23-310).
T1 construct: also called mammalian syndecan-1; CD138
T1 sequence (looked up): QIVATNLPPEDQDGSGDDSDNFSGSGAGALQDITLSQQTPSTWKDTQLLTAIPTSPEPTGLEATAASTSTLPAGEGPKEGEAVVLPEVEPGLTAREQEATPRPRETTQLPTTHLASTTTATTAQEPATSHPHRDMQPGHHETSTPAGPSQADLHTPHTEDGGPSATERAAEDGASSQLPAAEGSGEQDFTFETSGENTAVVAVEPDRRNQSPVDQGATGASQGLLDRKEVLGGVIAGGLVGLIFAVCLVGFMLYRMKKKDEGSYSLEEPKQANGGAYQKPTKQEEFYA
Description: lacritin affinity column, biotinylated cell surface proteins, elution with 1 M NaCl, sequencing. How it is done: (§1) After washing extensively in physiological salt-containing buffer, bound protein was eluted with 1 M NaCl, and identified with avidin-peroxidase using an ECL blot method. […] 293T cells stably transfected with human syndecan-2 or −4 were kindly provided by Dr. Atsushi Utani (Chiba University). […] Immunolocalization of syndecan-1 in human lacrimal glands was performed using anti-human syndecan-1 antibody (CD138).

For assay [2], the target named is human syndecan-2 (human, UniProt P34741 19-201). Description: pull-down from lysates of transfected 293T cells with intein-tagged lacritin. How it is done: as §1
The target in assay [3] is T2, human syndecan-4 (human, UniProt P31431 19-198).
T2 sequence (looked up): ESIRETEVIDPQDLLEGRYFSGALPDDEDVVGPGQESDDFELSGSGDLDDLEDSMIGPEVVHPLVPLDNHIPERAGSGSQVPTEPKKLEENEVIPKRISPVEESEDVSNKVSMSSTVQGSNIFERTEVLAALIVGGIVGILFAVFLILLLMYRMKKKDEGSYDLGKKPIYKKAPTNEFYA
Described as above. How it is done:
as §1

Assay [4] has as its target T1, human syndecan-1. Put plainly: pull-down from lysates of transfected cells with intein-tagged lacritin, SDS PAGE. Here is the method:
as §1

Assay [5] has as its target T1, human syndecan-1. Put plainly: pull-down from lysates of transfected cells with intein-tagged deletion mutant. Here is the method: as §1

Sequence of human syndecan-2 (P34741 19-201 limits assumed): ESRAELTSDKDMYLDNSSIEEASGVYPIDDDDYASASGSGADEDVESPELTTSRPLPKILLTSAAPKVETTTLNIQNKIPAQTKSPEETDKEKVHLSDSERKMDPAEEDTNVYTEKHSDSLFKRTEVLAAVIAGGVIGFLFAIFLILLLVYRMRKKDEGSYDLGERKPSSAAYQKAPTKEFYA

B1: mature lacritin (recombinant, from pLAC, cleaved from intein) (ligand)
chain: EDASSDSTGADPAQEAGTSKPNEEISGPAEPASPPETTTTAQETSAAAVQGTAKVTSSRQELNPLKSIVEKSILLTEQALAKAGKGMHGGVPGGKQFIENGSEFAQKLLKKFSLLKPWA
notes: also called soluble lacritin
Turning to B1, the binding result in assay [1] is “binds”.

B2: intein-tagged lacritin (pLAC lacritin-intein fusion) (ligand, not shown: small tags and cut ends)
chain: B1 chain
Take B2: the binding result is recorded as “no binding” in assay [2], “no binding” in assay [3] and “binds” in assay [4].

B3: intein-tagged lacritin deletion mutant C-25 (ligand)
chain: EDASSDSTGADPAQEAGTSKPNEEISGPAEPASPPETTTTAQETSAAAVQGTAKVTSSRQELNPLKSIVEKSILLTEQALAKAGKGMHGGVPGG
notes: Pull-downs used 'intein deletion mutants'; also called lacritin lacking 25 C-terminal amino acids; not shown: intein tag of vector pTYB11
Regarding B3, in assay [5], the binding result is recorded as “no binding”.

The values above are taken from patent publication US20070207522A1 (UNIVERSITY OF VIRGINIA PATENT FOUNDATION, published 2007).
